The record followed here is US20180009879A1.

The target in test [1] is HSV-1 (HF strain, VR-260 ATCC): unidentified viral antigen on virions or infected VERO-E6 cells (Herpes simplex virus 1). Nature of the test: cell-based or functional assay.
Test [2] addresses HSV-2 (MS strain, VR-540 ATCC): unidentified viral antigen on virions or infected VERO-E6 cells (Herpes simplex virus 2). The test can be described thus: cell-based or functional assay.

B1: Fab Ex2 (IgG1 Fab format) (Fab, V domains shown)
VH: LESGGGVVQPGRSLRLSCAASGFTFTTFAMHWVRQAPGKGLEWLAFISYDGSNKYYADSVKGRFTISRDNSKNTLYLQMNSLRAEDTSIYYCAREVWNYADYWGQGALVTVSS
VL: ELTQSPGTLSSSPGHRATLSCKASAPLGSNHMAWYQQKPGQAPRLLIYGASTRATGVPARFTGSGSGTDFTLTISSLQPEDFATYYCQQANSFPRTFGQGTKVEIK
Turning to B1, the concentration reducing HSV cytopathic effect by 50% (IIF assay) in test [1] and in test [2] was less than 5 µg/mL each time.
